In the DeepSol protein solubility set:

Test: soluble on expression in E. coli; label from the status in PepcDB or PDB records

Row | Sequence | soluble on expression in E. coli
1 | MHHHHHHSSGVDLGTENLYFQSMARLPKLAVFDLDYTLWPFWVDTHVDPPFHKSSDGTVRDRRGQDVRLYPEVPEVLKRLQSLGVPGAAASRTSEIEGANQLLELFDLFRYFVHREIYPGSKITHFERLQQKTGIPFSQMIFFDDERRNIVDVSKLGVTCIHIQNGMNLQTLSQGLETFAKAQTGPL | soluble
2 | MGSDKIHHHHHHMKNLYAKVIVGGSPISKSNFKLSNINGRAILPYNSGQYHDRYAIYEETIAYEARSQNPNTVISESIIAVLKVFYKSKKRHPDTNNITKSIFDGIEKSGIIVNDAQITRIIIEEYYDMINPRFELELFAESKFKMKYSILKKEEEDEPILYDPPSNKKRLITKTQKPKKSAQNGTITCSICGKKVTNDNIIWANKGTTALCKNCLKKSF | not soluble
3 | MSTRFRLSLALLTTLVLSACDDAPRFTHAEPGEALSGGSATVRKSDQNAFSMPSANLSPVRRLDFSVGNSFFRSPWVIAPSTTTARDGLGPLFNTNACQNCHIKDGRGHPPEAGDSNAVSMLVRLSIPDDPAYADLIRRNGVLPEPTYGGQLQDMSNPGVAPEGKVRVEYDALTVNFRDGTAVELRQPTLRITQLGYGPMHPETHISARIAPPMIGLGLLEAIADDAILANADPDDKNADGISGRPNWVWDDVQQKVVMGRFGWKAGQPNLNQQNVHAFSGDMGLTTSLRRVDDCTPAQTDCLVAPNGNGPDGEPEVSDNILRLVEFYTRNLGVPARRKVADPQVLAGKNLFFEAGCQQCHTPSFKTRSDAAQPELANQDIRPYSDLLLHDMGEGLADNRTEFQATGREWRTPPLWGLGLTETVSGHTQLLHDGRARNMLEAILWHGGEAQAAQRRVLAFDAEQREALLAFLNSL | not soluble
4 | MNNNLLIIAGPTAVGKSDLSVDLAKKLNGEIISVDSMQIYKYMDIGSAKISKEEMGGIPHYLIDFVDPSKEFSVAEFKDLTTEKIKDIQSRGKLPILVGGTGLYINSIICNMNFAESDKDEEYREELEKIANEHGNEYLHEMLKDIDLESYNSIHFNNRKRVIRALETYKLTGKPFSSFKAKNSIYETPYNIYYYVLNMDRAKLYDRINKRVDIMFEKGLLEEVKNLKAMGLTDDMQSMKGIGYKEVLYYLDGKISLEQCIEMIKQGSRNYAKRQLTWFRKDPRAIFIDKDTFASEEDISSKIINDIINSMAGDPNSLEHHHHHH | not soluble
5 | KKIIHELLDDILFFETAPTIHKVILHGKNRQVEFYGKLKSIEKMLDESFYRCHRSYIVNKKNIHELDTTKGVVKMSNGENCYASSKLIKSLSL | not soluble
6 | MNIGKPRKLGKTIEDIEEGDSLSLTESIEDKDLLLYLGLTNDANPLYIQHDYAQKTEYEKPIVPSIMLMGIITSAISKHLPGPGSHVVNFSVNFVEPVFHYETLTFQLEVIKVDKMKDVITISVEAVNEQENRVLDAVVMVQPPQVTIDELTEKEGTLTYE | soluble
7 | MAHHHHHHMRLIESRQMHEWDNAADSSLDVDHPEDAPFGQGPERQQQRDGKSNLGDQSDYGEEARTEATWLWRFGFPRTEDEKAYVASHLWSKGLRRRVAQLTDVRRRGRPGEFVIGVPEGLQHLREQRERLERERFGGVKVFPPQNA | not soluble
8 | MSLALVAEKLSEQWRAELDSRGLDAAPMADWMTVCRRLSLALAGTGLSLEEIRSLQRLPEADRVETHRERLLNSERFHHYWAERTARYLVGADEGPFIFYRGRRFRSWLTEQYAKNTRYDELVRMLITAEGVWTDRPEVNFHTVTFDSGDNAPDPIRLAARTTRAFLGVRIDCLQCHDDFLGNVSLGDASWIMCGVGDATMQAAAEGDAKYVLREGTQEDFHSLAAFFTAATSEGVQGLKDKRANYEYQYLYADETVPVEPNVPFLRELLPPRPENRQDDSSDDDSTDTTDESASDEPSDAPEPLELPRYLSDRERLAYWLTHTENKPAARAAVTRVWTLLFGQPPAIETDYGFQVGEVDNLPLDSPPSPLIETLTEAFIESDFNIRKLIRCITDSPAFRVSSRADFDVTEQHELAMAVFPVTHLRSEQVAGAAIQAGRIKTINRDSSFLVQLQQFGSLNDFLKRYGDLGEDEFTQQPVTITQRLVMLNGKLINETASPNPILNASSHIEMFAKDDEDVVRTLYLTVLNREPSERELEHFVKRLTAESREQNDPPTSRKQEITDLTWILLNSSEFAWNHEGHHHHHH | not soluble
9 | MGSDKIHHHHHHMSQQLTFADSEFSSKRRQTRKEIFLSRMENLLPWSQLLDVIEPFYPKVGNGRRPYPLETMFRIHCMQQWYSLSDEATEDALYEIASMRQFALLSLDKAIPDRTTIMNFRHLLEKHKLTRKLFKTVNQWLSDSGVMMTQGTLVDATIIEAPSSTKNKNNERDPDMHQTKKGNQWHFGMKAYIGVDAKSGLTHTLVTTAANEHDLNQLDNLLHGEEEFVSGDAGYQGAQKREELKDTNVEWLIAERPGKIRALKKRPRKNKTIINIEYLKASIRAKVEHPFRIIKCQFGFIKARYKGLMKNDSQLAMLFTLANLFTVDQMLRRQPRSV | not soluble
10 | MSLSTARIMLVDDHPIVREGYRRLIERRPGYAVVAEAADAGEAYRLYRETTPDIVVMDLTLPGPGGIEATRHIRQWDGAARILIFTMHQGSAFALKAFEAGASGYVTKSSDPAELVQAIEAILAGRRAMSPDIAQEIAEERVEGRATAIADLSPRETEILRMLASGMTSDEIAAGLCLSVKTVQNNHYQIKAKLGARTDAHLVWVAIEAGLVREGHHHHHH | soluble
11 | MTSTFLYKFYPNYNAKNCGDRMPKLMLALDVLDRDRALKIVEDVKDYVDAIKVGYPLVLSTGTEIIKEIKKLCNKEVIADFKVADIPATNEKIAKITLKYADGIIVHGFVGEDSVKAVQDVAKKLNKKVIMVTEMSHPGAVQFLQPIADKLSEMAKKLKVDAIVAPSTRPERLKEIKEIAELPVITPGVGAQGGKIEDILNILDENDYVIVGRAIYQSQNPKEEAKKYKEMLNK | soluble
12 | MEYELLIREAEPKDAAELVAFLNRVSLETDFTSLDGDGILLTSEEMEIFLNKQASSDNQITLLAFLNGKIAGIVNITADQRKRVRHIGDLFIVIGKRYWNNGLGSLLLEEAIEWAQASGILRRLQLTVQTRNQAAVHLYQKHGFVIEGSQERGAYIEEGKFIDVYLMGKLIG | soluble
13 | MDLTNGGVSPAATSAPLDWTTFRRVFLIDDAWRPLMEPELANPLTAHLLAEYNRRCQTEEVLPPREDVFSWTRYCTPDEVRVVIIGQNPYHHPGQAHGLAFSVRANVPPPPSLRNVLAAVKNCYPEARMSGHGCLEKWARDGVLLLNTTLTVKRGAAASHSRIGWDRFVGGVIRRLAARRPGLVFMLWGTHAQNAIRPDPRVHCVLKFSNPSPLSKVPFGTCQHFLVANRYLETRSISPIDWSV | soluble
14 | FLDGIDKAQEEHEKYHSNWRAMASDFNLPPVVAKEIVASCDKCQLKGEAMHGQVDCSPGIWQLDCTHLEGKVILVAVHVASGYIEAEVIPAETGQETAYFLLKLAGRWPVKTVHTDNGSNFTSTTVKAACDWAGIKQEDGIPYNPQSQGVIESMNKELKKIIGQVRDQAEHLKTAVQMAVFIHNKKRKGGIGGYSAGERIVDIIATDIQTKELQKQITKIQNFRVYYRDSRDPVWKGPAKLLWKGEGAVVIQDNSDIKVVPRRKAKIIRDYGKQMAGDDCVASRQDED | soluble
15 | VDNARIDLRSKYYVKPKADHPWLTRRTQSHQQVKPPKLPKKKPDPDKKD | soluble
16 | MNCMWCDSTEAKESLNTVYWELPDGTKAIEIQETPCISCSSCGMDYQSDHTVKEIEDQLFLIYTKDLPKQLTYEELMGRPRLLKRNYFDF | not soluble
17 | MDILVLRVDVPKEGFARKLGAHETVFAADDGAVGKVQQLVEVLLRHERDFDEADGCRLKNIAVVLQGILRNNAALFEAVDDLRPRQQQCHRAACLSPHFQPLCPNIAPIAEKQPFGGVFFGQHQPLSQGFSIETDGFAVITFAYQPAAFFAETHKPKIFLNTLLRRRHQMQPFIAFLRAQIFPIQPKRLVSADNVQHIFGQVAGKSFDDDIGNRRGINICRIGMPSADMNILMNAGNIGQIRAKRTQGGHIVRPQMHLPTEFAVQNTGEPPRNADVAEIVDDLAKNPTDKRRSIHRNNGNGLKRAKIVEQIHNQQNNRNKQQHSLTFQIKLLFQMMLDGVEKDEFKQKRRFAGKDDAVDQMLEFVFGRIGGENGKRRQRDEADGKPADKQVSGHCKAFKKAKRHYRPKRTPCLTDAPEMPSEALPQENAAPPNL | not soluble
18 | MGTSGCTVDTSRRDKVRMALPHAELEQARMDNLTRHVAQNFLREPQVVGEPNDSGVAVSQLLFEKSDTVVISDREIHHQLRAASIAVVAHAPMLLMDDTDRDAVQAEIGRLGARYILAIGDVGLPKTTGNVKVIPDSGSLTALGKLTSLQFRTQRIDVSNALSAVSRLDGTHPMWLLTNRQEKVQSSPSDGEVSAFPVQSRRDAGAAPQVIATQESGIAAVATARSYGASVTVMRFPDPRLNVESMRAVAGLSDQPLIALGSQFGTSQQLSERIELGERAPLALPHKTGLVFALRTLRARYLNDSDVSEHVDIPYGANYVRTIAHPLSSQDQQDWKAWADAINAQDGFVFIEIDAVHRDADEILDSVEEIVSQPSIGVILRNAAQVCARSPQSRQRIADRLMHWNSEVINHNGDQLGVVLEGVDILRGGVCGISPQELMGLGLAILPARGEHLGGDATVNSQLYWDDWFVAERESFQPTGTLRSPRLGLIIRD | not soluble
19 | MSLELSLADRPAIVTGASRGIGREIAARFAEAGGDVVVCSRTYEDVEAVATELTQTHDGRVVPVECDVTDREAVRDLVDTTIQEFGDIRVLVNNAGGADESANLLHRCDEETFESMVDLNLKSQFLLSKEVLPAMVAAGGGSIIHMGSVNGLFGIGLSGYSEAKSGLLALSRNIAAHYGQHGVRSNVISAATIETANRRAEMENTEERTGETSARERWLDQYPLGRFGTPREVADTTLFLASEMSSFLTGENLVLDGGLTTSLPTSFINEVYDADEKPTPNEGHHHHHH | soluble
20 | SLNSPIATVEVFTLTQPRKVPYLGALREGEVVNPNGYIVRKGNRTVYPTFDRSVLVRMTTEAGTVGWGETYGIVAPGAVAALINDLLAGFVIGRDASDPSAVYDDLYDMMRVRGYTGGFYVDALAALDIALWDIAGQEAGKSIRDLLGGGVDSFPAYVSGLPERTLKARGELAKYWQDRGFNAFKFATPVADDGPAAEIANLRQVLGPQAKIAADMHWNQTPERALELIAEMQPFDPWFAEAPVWTEDIAGLEKVSKNTDVPIAVGEEWRTHWDMRARIERCRIAIVQPEMGHKGITNFIRIGALAAEHGIDVIPHATVGAGIFLAASLQASSTLSMLKGHEFQHSIFEPNRRLLDGDMDCREGRYHLPSGPGLGVRPSEAALGLIERI | soluble
21 | GSHMKEDQVVAEEPGFQDEEESLFQDIDLLQKHGINVADIKKLKSVGICTIKGIQMTTRRALCNVKGLSEAKVDKIKEAANKLIEPGFLTAFEYSEKRKMVFHITTGSQEFDKLLGGGIESMAITEAFGEFRTGKTQLSHTLCVTAQLPGAGGYPGGKIIFIDTENTFRPDRLRDIADRFNVDHDAVLDNVLYARAYTSEHQMELLDYVAAKFHEEAGIFKLLIIDSIMALFRVDFSGRGELAERQQKLAQMLSRLQKISEEYNVAVFVTNQMTADPGATMTFQADPKKPIGGHILAHASTTRISLRKGRGELRIAKIYDSPEMPENEATFAITAGGIGDAKE | soluble
22 | PPFTGDERASIQRACEAGVEKIIVPATEAAHFPRVLALAARFPSLYAALGLHPIVIERHADDDSDKLQQALAQQQNVVAVGEIGLDLYRDDPQFARQERFLDAQLQLAKRYDLPVILHSRRTHDKLAMHLKRQDLPRTGVVHGFAGSLQQAERFVRLGYKIGVGGTITYPRASKTRDVMARLPLDALLLETDAPDMPLKGFQGQPNRPEQAARVFDALCELRPE | not soluble
